One molecule from patent US8697369B2, “Method for screening a test substance for activating a receptor associated with FGF 21 activity” (National Institute of Advanced Industrial Science and …, priority 2007, dated 2014) can be followed below.

What all share (assay type): cell-based
Assay [1] concerns the target T1, FGFR1c-expressing BaF3 cells (Mus musculus, UniProt P16092).
T1 construct: the entire-length cDNA of mouse FGFR1c had been cloned; expressed in transfected cells; host or cells: BaF3 (mouse pro-B) cells
Nature of the assay: DNA synthesis (thymidine incorporation) in BaF3 cells expressing only FGFR1c. The conditions noted are these: BaF3 cells expressing FGFR1c but not betaKlotho. Here is the method: (§1) A commonly used measurement method is a cell growth stimulating activity measurement method described in Ornitz, D. M., Xu, J., Colvin, J. S., McEwen, D. G., MacArthur, C. A., Coulier, F., Gao, G. and Goldfarb, M. (1996) Receptor specificity of the fibroblast growth factor family. J Biol Chem, 271, 15292-15297. The summary thereof is as follows. FGF used as a measurement target is added to a culture solution containing a cultured cell having an FGF receptor on the surface thereof, and the obtained mixture is cultured for a certain period of time. Thereafter, a labeled thymidine is added to the culture solution, followed by further culture for a certain period of time. By measuring the amount of the labeled thymidine incorporated into polymeric DNA during the culture, the degree of FGF to activate DNA synthesis is evaluated. (In the present invention as well, this method was adopted when the activity of FGF21 was measured in Examples 4, 5, 6, 8, 9, and 10.) […]
(§2) Immediately after inoculation, BaF3 cells that had expressed each clone and only FGFR1c were stimulated by addition of FGF21 (open bar) or PBS (filled bar) used as a control in the presence of heparin, and they were then cultured for 42 hours. […] Thereafter, the amount of thymidine incorporated into the cells was measured, so as to evaluate DNA synthesis. […]
A general note: Incorporation of labelled thymidine or its analogues reports DNA synthesis.

Assay [2] concerns the target T2, betaKlotho-expressing BaF3 cells (Mus musculus, UniProt Q99N32).
T2 construct: the entire-length cDNA of mouse betaKlotho was cloned into an animal cell expression vector; expressed in transfected cells; host or cells: BaF3 (mouse pro-B) cells
T2 sequence (Q99N32 1-1043): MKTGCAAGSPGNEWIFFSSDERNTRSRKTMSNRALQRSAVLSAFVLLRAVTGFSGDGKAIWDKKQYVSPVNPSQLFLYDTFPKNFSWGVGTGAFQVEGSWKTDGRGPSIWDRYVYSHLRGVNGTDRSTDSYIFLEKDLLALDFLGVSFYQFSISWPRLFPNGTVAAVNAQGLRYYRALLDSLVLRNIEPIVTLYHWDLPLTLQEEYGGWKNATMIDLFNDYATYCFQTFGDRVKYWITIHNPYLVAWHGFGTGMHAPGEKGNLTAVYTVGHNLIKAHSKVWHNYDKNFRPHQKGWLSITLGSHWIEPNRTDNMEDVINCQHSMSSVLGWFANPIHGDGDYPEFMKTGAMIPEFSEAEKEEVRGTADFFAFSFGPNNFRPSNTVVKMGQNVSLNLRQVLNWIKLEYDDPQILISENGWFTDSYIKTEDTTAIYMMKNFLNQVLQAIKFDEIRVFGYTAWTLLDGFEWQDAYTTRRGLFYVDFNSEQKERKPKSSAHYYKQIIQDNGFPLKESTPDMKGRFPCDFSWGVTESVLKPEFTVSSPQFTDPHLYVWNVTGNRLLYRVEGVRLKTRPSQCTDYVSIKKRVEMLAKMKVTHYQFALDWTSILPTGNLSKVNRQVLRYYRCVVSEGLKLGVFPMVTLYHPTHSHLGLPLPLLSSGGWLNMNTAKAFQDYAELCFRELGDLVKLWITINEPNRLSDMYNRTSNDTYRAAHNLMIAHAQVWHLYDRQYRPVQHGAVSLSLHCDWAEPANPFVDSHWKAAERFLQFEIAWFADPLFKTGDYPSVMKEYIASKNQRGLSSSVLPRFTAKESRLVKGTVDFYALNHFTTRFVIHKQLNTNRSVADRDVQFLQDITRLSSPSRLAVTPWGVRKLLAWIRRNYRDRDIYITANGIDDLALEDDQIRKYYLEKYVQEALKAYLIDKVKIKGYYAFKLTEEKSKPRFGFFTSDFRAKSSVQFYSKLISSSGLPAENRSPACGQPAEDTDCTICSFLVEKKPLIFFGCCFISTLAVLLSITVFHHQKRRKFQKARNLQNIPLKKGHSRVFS
Nature of the assay: DNA synthesis (thymidine incorporation) in BaF3 cells expressing only betaKlotho. To be noted: presence or absence of heparin. Here is the method: as §1, §2

Assay [3] deals with T3, BaF3 cells that had co-expressed FGFR1c and Klotho (Mus musculus, UniProt O35082+P16092).
T3 construct: the entire-length cDNA of mouse FGFR1c had been cloned; expressed in transfected cells; host or cells: BaF3 (mouse pro-B) cells
T3 sequence (P16092 22-822): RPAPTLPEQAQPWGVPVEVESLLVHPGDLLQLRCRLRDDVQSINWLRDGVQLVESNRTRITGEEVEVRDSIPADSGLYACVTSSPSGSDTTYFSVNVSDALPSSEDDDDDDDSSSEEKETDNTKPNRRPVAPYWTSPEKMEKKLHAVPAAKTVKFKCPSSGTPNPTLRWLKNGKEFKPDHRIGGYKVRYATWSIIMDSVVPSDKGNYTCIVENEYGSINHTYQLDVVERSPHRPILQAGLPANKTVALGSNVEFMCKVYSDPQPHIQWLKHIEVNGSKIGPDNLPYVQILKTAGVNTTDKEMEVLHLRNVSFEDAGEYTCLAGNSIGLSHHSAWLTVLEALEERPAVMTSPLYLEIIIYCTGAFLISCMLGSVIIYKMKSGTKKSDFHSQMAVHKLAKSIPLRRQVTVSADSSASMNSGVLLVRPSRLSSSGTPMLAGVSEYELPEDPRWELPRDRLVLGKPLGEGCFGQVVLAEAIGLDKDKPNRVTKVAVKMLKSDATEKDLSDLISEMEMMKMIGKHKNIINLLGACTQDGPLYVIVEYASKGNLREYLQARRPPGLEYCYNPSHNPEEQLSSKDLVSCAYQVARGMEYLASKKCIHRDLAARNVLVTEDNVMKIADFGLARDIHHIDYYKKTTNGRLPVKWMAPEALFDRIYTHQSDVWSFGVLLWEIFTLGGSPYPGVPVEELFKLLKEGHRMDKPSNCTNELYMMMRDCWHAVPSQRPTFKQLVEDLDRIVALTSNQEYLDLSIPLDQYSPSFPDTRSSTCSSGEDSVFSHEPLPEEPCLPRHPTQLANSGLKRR
T3 sequence (O35082 35-1014): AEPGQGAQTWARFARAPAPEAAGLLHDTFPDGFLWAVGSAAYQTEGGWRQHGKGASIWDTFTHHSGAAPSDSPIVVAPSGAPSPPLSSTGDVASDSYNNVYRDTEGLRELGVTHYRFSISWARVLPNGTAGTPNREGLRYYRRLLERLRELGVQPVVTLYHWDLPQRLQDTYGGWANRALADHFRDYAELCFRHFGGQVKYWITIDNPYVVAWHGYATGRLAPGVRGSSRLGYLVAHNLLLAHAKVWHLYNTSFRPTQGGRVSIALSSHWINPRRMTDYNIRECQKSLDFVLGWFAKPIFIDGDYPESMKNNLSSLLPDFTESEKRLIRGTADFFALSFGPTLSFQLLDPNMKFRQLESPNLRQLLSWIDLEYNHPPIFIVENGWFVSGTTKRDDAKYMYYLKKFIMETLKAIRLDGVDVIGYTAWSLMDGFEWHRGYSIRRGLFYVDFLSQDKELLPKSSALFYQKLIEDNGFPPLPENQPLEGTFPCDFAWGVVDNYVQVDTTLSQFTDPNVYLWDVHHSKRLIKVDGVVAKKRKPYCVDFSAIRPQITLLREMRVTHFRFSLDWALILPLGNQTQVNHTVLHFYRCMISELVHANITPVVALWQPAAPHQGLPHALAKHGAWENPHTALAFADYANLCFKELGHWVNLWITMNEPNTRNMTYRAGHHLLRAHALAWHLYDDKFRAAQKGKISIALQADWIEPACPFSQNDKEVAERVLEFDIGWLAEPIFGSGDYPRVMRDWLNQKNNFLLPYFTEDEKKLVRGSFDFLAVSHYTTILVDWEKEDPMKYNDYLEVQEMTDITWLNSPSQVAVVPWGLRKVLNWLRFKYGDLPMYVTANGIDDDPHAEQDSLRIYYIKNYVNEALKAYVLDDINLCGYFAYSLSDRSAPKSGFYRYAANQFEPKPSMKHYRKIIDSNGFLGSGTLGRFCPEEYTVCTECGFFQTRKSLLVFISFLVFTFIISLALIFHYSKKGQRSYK
In words: DNA synthesis in BaF3 cells co-expressing FGFR1c and Klotho. The conditions noted are these: presence or absence of heparin. Here is the method:
Specifically, BaF3 cell that had co-expressed FGFR1c and betaKlotho and BaF3 cells that had co-expressed FGFR1c and Klotho were prepared by the same transformation method and under the same culture conditions as those applied in Example 4. Thereafter, FGF21 and FGF23 were added to both types of transformed cells in the presence or absence of heparin, and the amount of DNA synthesized was then measured.

T1 sequence (P16092 22-822): as the sequence (P16092 22-822) above

B1: FGF21: fibroblast growth factor 21; mouse-derived protein used in Examples 1-7 and 10-13 (protein)
chain: AYPIPDSSPLLQFGGQVRQRYLYTDDDQDTEAHLEIREDGTVVGAAHRSPESLLELKALKPGVIQILGVKASRFLCQQPDGALYGSPHFDPEACSFRELLLEDGYNVYQSEAHGLPLRLPQKDSPNQDATSWGPVRFLPMPGLLHEPQDQAGFLPPEPPDVGSSDPLSMVEPLQGRSPSYAS
As to B1, the “DNA synthesis (thymidine incorporated into the cells)” value in assay [1] and in assay [2] was “did not react with FGF21” each time. Also, the “amount of DNA synthesized” value in assay [3] is “did not react with FGFR1c”.
